Source: patent US20130323786A1 (Biogen, published 2013)

T1: LINGO-Fc (human, UniProt Q96FE5 40-538, limits assumed)
T1 construct: not shown: Fc part
T1 sequence: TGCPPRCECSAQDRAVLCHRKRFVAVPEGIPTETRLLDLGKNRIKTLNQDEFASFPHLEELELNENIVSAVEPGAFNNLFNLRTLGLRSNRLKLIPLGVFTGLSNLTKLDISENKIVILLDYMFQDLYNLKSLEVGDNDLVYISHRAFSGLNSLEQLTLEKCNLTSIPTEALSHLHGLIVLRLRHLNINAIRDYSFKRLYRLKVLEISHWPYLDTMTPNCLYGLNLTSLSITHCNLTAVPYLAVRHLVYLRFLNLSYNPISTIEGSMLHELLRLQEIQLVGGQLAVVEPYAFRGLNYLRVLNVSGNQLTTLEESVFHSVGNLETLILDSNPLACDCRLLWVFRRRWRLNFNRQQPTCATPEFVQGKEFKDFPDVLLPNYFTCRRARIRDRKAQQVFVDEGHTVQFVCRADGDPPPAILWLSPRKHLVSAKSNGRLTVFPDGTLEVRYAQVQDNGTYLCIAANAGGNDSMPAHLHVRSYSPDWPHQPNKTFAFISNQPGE

B1: Li33 variant P53T (SEQ ID NO:153) (antibody, V domains shown)
VH: EVQLLESGGGLVQPGGSLRLSCAASGFTFSIYPMFWVRQAPGKGLEWVSWIGTSGGITKYADSVKGRFTISRDNSKNTLYLQMNSLRAEDTATYYCAREGHNDWYFDLWGRGTLVTVSS
VL: DIQMTQSPGTLSLSPGERATLSCRASQSVSSYLAWYQQKPGQAPRLLIYDASNRATGIPARFSGSGSGTEFTLTISSLQSEDFAVYYCQQYDKWPLTFGGGTKVEIKR
notes: unchanged chain from WT Li33
B2: Li33 variant W50M (SEQ ID NO:150) (antibody, V domains shown)
VH: EVQLLESGGGLVQPGGSLRLSCAASGFTFSIYPMFWVRQAPGKGLEWVSMIGPSGGITKYADSVKGRFTISRDNSKNTLYLQMNSLRAEDTATYYCAREGHNDWYFDLWGRGTLVTVSS
VL: DIQMTQSPGTLSLSPGERATLSCRASQSVSSYLAWYQQKPGQAPRLLIYDASNRATGIPARFSGSGSGTEFTLTISSLQSEDFAVYYCQQYDKWPLTFGGGTKVEIKR
notes: unchanged chain from WT Li33
B3: Li33 variant W94S (SEQ ID NO:172) (antibody, V domains shown)
VH: EVQLLESGGGLVQPGGSLRLSCAASGFTFSIYPMFWVRQAPGKGLEWVSWIGPSGGITKYADSVKGRFTISRDNSKNTLYLQMNSLRAEDTATYYCAREGHNDWYFDLWGRGTLVTVSS
VL: DIQMTQSPGTLSLSPGERATLSCRASQSVSSYLAWYQQKPGQAPRLLIYDASNRATGIPARFSGSGSGTEFTLTISSLQSEDFAVYYCQQYDKSPLTFGGGTKVEIKR
notes: unchanged chain from WT Li33
B4: Li33 variant W94L (SEQ ID NO:167) (antibody, V domains shown)
VH: EVQLLESGGGLVQPGGSLRLSCAASGFTFSIYPMFWVRQAPGKGLEWVSWIGPSGGITKYADSVKGRFTISRDNSKNTLYLQMNSLRAEDTATYYCAREGHNDWYFDLWGRGTLVTVSS
VL: DIQMTQSPGTLSLSPGERATLSCRASQSVSSYLAWYQQKPGQAPRLLIYDASNRATGIPARFSGSGSGTEFTLTISSLQSEDFAVYYCQQYDKLPLTFGGGTKVEIKR
notes: unchanged chain from WT Li33
B5: Li33 variant W94G (SEQ ID NO:169) (antibody, V domains shown)
VH: EVQLLESGGGLVQPGGSLRLSCAASGFTFSIYPMFWVRQAPGKGLEWVSWIGPSGGITKYADSVKGRFTISRDNSKNTLYLQMNSLRAEDTATYYCAREGHNDWYFDLWGRGTLVTVSS
VL: DIQMTQSPGTLSLSPGERATLSCRASQSVSSYLAWYQQKPGQAPRLLIYDASNRATGIPARFSGSGSGTEFTLTISSLQSEDFAVYYCQQYDKGPLTFGGGTKVEIKR
notes: unchanged chain from WT Li33
B6: Li33 variant P53W (SEQ ID NO:154) (antibody, V domains shown)
VH: EVQLLESGGGLVQPGGSLRLSCAASGFTFSIYPMFWVRQAPGKGLEWVSWIGWSGGITKYADSVKGRFTISRDNSKNTLYLQMNSLRAEDTATYYCAREGHNDWYFDLWGRGTLVTVSS
VL: DIQMTQSPGTLSLSPGERATLSCRASQSVSSYLAWYQQKPGQAPRLLIYDASNRATGIPARFSGSGSGTEFTLTISSLQSEDFAVYYCQQYDKWPLTFGGGTKVEIKR
notes: unchanged chain from WT Li33
B7: Li33 variant W94D (SEQ ID NO:166) (antibody, V domains shown)
VH: EVQLLESGGGLVQPGGSLRLSCAASGFTFSIYPMFWVRQAPGKGLEWVSWIGPSGGITKYADSVKGRFTISRDNSKNTLYLQMNSLRAEDTATYYCAREGHNDWYFDLWGRGTLVTVSS
VL: DIQMTQSPGTLSLSPGERATLSCRASQSVSSYLAWYQQKPGQAPRLLIYDASNRATGIPARFSGSGSGTEFTLTISSLQSEDFAVYYCQQYDKDPLTFGGGTKVEIKR
notes: unchanged chain from WT Li33
B8: Li33 variant W104H (SEQ ID NO:156) (antibody, V domains shown)
VH: EVQLLESGGGLVQPGGSLRLSCAASGFTFSIYPMFWVRQAPGKGLEWVSWIGPSGGITKYADSVKGRFTISRDNSKNTLYLQMNSLRAEDTATYYCAREGHNDHYFDLWGRGTLVTVSS
VL: DIQMTQSPGTLSLSPGERATLSCRASQSVSSYLAWYQQKPGQAPRLLIYDASNRATGIPARFSGSGSGTEFTLTISSLQSEDFAVYYCQQYDKWPLTFGGGTKVEIKR
notes: unchanged chain from WT Li33
B9: Li33 variant W104L (SEQ ID NO:177) (antibody, V domains shown)
VH: EVQLLESGGGLVQPGGSLRLSCAASGFTFSIYPMFWVRQAPGKGLEWVSWIGPSGGITKYADSVKGRFTISRDNSKNTLYLQMNSLRAEDTATYYCAREGHNDLYFDLWGRGTLVTVSS
VL: DIQMTQSPGTLSLSPGERATLSCRASQSVSSYLAWYQQKPGQAPRLLIYDASNRATGIPARFSGSGSGTEFTLTISSLQSEDFAVYYCQQYDKWPLTFGGGTKVEIKR
notes: unchanged chain from WT Li33
B10: Li33 variant W94A (SEQ ID NO:165) (antibody, V domains shown)
VH: EVQLLESGGGLVQPGGSLRLSCAASGFTFSIYPMFWVRQAPGKGLEWVSWIGPSGGITKYADSVKGRFTISRDNSKNTLYLQMNSLRAEDTATYYCAREGHNDWYFDLWGRGTLVTVSS
VL: DIQMTQSPGTLSLSPGERATLSCRASQSVSSYLAWYQQKPGQAPRLLIYDASNRATGIPARFSGSGSGTEFTLTISSLQSEDFAVYYCQQYDKAPLTFGGGTKVEIKR
notes: unchanged chain from WT Li33
B11: Li33 variant W94Q (SEQ ID NO:170) (antibody, V domains shown)
VH: EVQLLESGGGLVQPGGSLRLSCAASGFTFSIYPMFWVRQAPGKGLEWVSWIGPSGGITKYADSVKGRFTISRDNSKNTLYLQMNSLRAEDTATYYCAREGHNDWYFDLWGRGTLVTVSS
VL: DIQMTQSPGTLSLSPGERATLSCRASQSVSSYLAWYQQKPGQAPRLLIYDASNRATGIPARFSGSGSGTEFTLTISSLQSEDFAVYYCQQYDKQPLTFGGGTKVEIKR
notes: unchanged chain from WT Li33
B12: Li33 variant W50H (SEQ ID NO:147) (antibody, V domains shown)
VH: EVQLLESGGGLVQPGGSLRLSCAASGFTFSIYPMFWVRQAPGKGLEWVSHIGPSGGITKYADSVKGRFTISRDNSKNTLYLQMNSLRAEDTATYYCAREGHNDWYFDLWGRGTLVTVSS
VL: DIQMTQSPGTLSLSPGERATLSCRASQSVSSYLAWYQQKPGQAPRLLIYDASNRATGIPARFSGSGSGTEFTLTISSLQSEDFAVYYCQQYDKWPLTFGGGTKVEIKR
notes: unchanged chain from WT Li33
B13: Li33 variant W50I (SEQ ID NO:174) (antibody, V domains shown)
VH: EVQLLESGGGLVQPGGSLRLSCAASGFTFSIYPMFWVRQAPGKGLEWVSIIGPSGGITKYADSVKGRFTISRDNSKNTLYLQMNSLRAEDTATYYCAREGHNDWYFDLWGRGTLVTVSS
VL: DIQMTQSPGTLSLSPGERATLSCRASQSVSSYLAWYQQKPGQAPRLLIYDASNRATGIPARFSGSGSGTEFTLTISSLQSEDFAVYYCQQYDKWPLTFGGGTKVEIKR
notes: unchanged chain from WT Li33
B14: Li33 variant W50L (SEQ ID NO:149) (antibody, V domains shown)
VH: EVQLLESGGGLVQPGGSLRLSCAASGFTFSIYPMFWVRQAPGKGLEWVSLIGPSGGITKYADSVKGRFTISRDNSKNTLYLQMNSLRAEDTATYYCAREGHNDWYFDLWGRGTLVTVSS
VL: DIQMTQSPGTLSLSPGERATLSCRASQSVSSYLAWYQQKPGQAPRLLIYDASNRATGIPARFSGSGSGTEFTLTISSLQSEDFAVYYCQQYDKWPLTFGGGTKVEIKR
notes: unchanged chain from WT Li33
B15: Li33 variant W50D (SEQ ID NO:175) (antibody, V domains shown)
VH: EVQLLESGGGLVQPGGSLRLSCAASGFTFSIYPMFWVRQAPGKGLEWVSDIGPSGGITKYADSVKGRFTISRDNSKNTLYLQMNSLRAEDTATYYCAREGHNDWYFDLWGRGTLVTVSS
VL: DIQMTQSPGTLSLSPGERATLSCRASQSVSSYLAWYQQKPGQAPRLLIYDASNRATGIPARFSGSGSGTEFTLTISSLQSEDFAVYYCQQYDKWPLTFGGGTKVEIKR
notes: unchanged chain from WT Li33
B16: Li33 variant W94V (SEQ ID NO:171) (antibody, V domains shown)
VH: EVQLLESGGGLVQPGGSLRLSCAASGFTFSIYPMFWVRQAPGKGLEWVSWIGPSGGITKYADSVKGRFTISRDNSKNTLYLQMNSLRAEDTATYYCAREGHNDWYFDLWGRGTLVTVSS
VL: DIQMTQSPGTLSLSPGERATLSCRASQSVSSYLAWYQQKPGQAPRLLIYDASNRATGIPARFSGSGSGTEFTLTISSLQSEDFAVYYCQQYDKVPLTFGGGTKVEIKR
notes: unchanged chain from WT Li33
B17: Li33 variant W94N (SEQ ID NO:168) (antibody, V domains shown)
VH: EVQLLESGGGLVQPGGSLRLSCAASGFTFSIYPMFWVRQAPGKGLEWVSWIGPSGGITKYADSVKGRFTISRDNSKNTLYLQMNSLRAEDTATYYCAREGHNDWYFDLWGRGTLVTVSS
VL: DIQMTQSPGTLSLSPGERATLSCRASQSVSSYLAWYQQKPGQAPRLLIYDASNRATGIPARFSGSGSGTEFTLTISSLQSEDFAVYYCQQYDKNPLTFGGGTKVEIKR
notes: unchanged chain from WT Li33
B18: Li33 variant W104I (SEQ ID NO:179) (antibody, V domains shown)
VH: EVQLLESGGGLVQPGGSLRLSCAASGFTFSIYPMFWVRQAPGKGLEWVSWIGPSGGITKYADSVKGRFTISRDNSKNTLYLQMNSLRAEDTATYYCAREGHNDIYFDLWGRGTLVTVSS
VL: DIQMTQSPGTLSLSPGERATLSCRASQSVSSYLAWYQQKPGQAPRLLIYDASNRATGIPARFSGSGSGTEFTLTISSLQSEDFAVYYCQQYDKWPLTFGGGTKVEIKR
notes: unchanged chain from WT Li33
B19: Li33 variant W50F (SEQ ID NO:148) (antibody, V domains shown)
VH: EVQLLESGGGLVQPGGSLRLSCAASGFTFSIYPMFWVRQAPGKGLEWVSFIGPSGGITKYADSVKGRFTISRDNSKNTLYLQMNSLRAEDTATYYCAREGHNDWYFDLWGRGTLVTVSS
VL: DIQMTQSPGTLSLSPGERATLSCRASQSVSSYLAWYQQKPGQAPRLLIYDASNRATGIPARFSGSGSGTEFTLTISSLQSEDFAVYYCQQYDKWPLTFGGGTKVEIKR
notes: unchanged chain from WT Li33

What was measured:
LINGO-Fc [1] = target: T1, LINGO-Fc; assay: direct ELISA on LINGO-Fc; OD450 at saturation relative to Li33;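 also: binding to plate-coated LINGO-Fc read by OD450, with the value at maximal saturation divided by the corresponding Li33 value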
Experimental: (§1) A direct binding ELISA assay was performed using LINGO-Fc coated plates. The half maximal concentration that gave 50% saturation of binding was measured and is reported as a ratio of the same measurement for Li33. In addition, the OD450 for maximal saturation value was measured and is reported as a ratio of the same measurement for Li33.

LINGO-Fc [2] = target: T1, LINGO-Fc; assay: direct ELISA on LINGO-Fc; half-maximal concentration relative to Li33;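 also: direct binding ELISA on plates coated with LINGO-Fc, concentration giving half of saturating binding, expressed as a ratio to the same value for the comparator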
Experimental: as §1

Binder	Plateau Ratio (LINGO-Fc [1]) [ratio]	ELISA Ratio (LINGO-Fc [2]) [ratio]
B1	0.85	2.1
B2	0.93	2
B3	0.99	1.3
B4	0.97	0.6
B5	1.03	0.9
B6	0.55	3.9
B7	0.87	1.5
B8	0.91	0.1
B9	0.69	2.5
B10	0.91	1.6
B11	1.05	0.9
B12	0.87	1.3
B13	12.4	93.5
B14	1	1.8
B15	0.71	4
B16	0.91	1.4
B17	1.05	0.8
B18	0.62	6.5
B19	0.86	1.2
